In patent US20190000964A1 (CREATIVE BIO PEPTIDES, published 2019):

How the values were obtained:
[1] = target: T1, human CCR5 receptor (hCCR5) (human, UniProt P51681 1-352); test: inhibition of gp120BaL/sCD4 binding to Cf2Th/synR5 cells (FIG. 4A)
T1 construct: whole, on cells; also called synCCR5; chemokine co-receptor CCR5

[2] = target: T1, human CCR5 receptor (hCCR5); test: inhibition of gp120CM235/sCD4 binding to GHOST CD4.CCR5 cells (FIG. 4C)
[3] = target: T1, human CCR5 receptor (hCCR5); test: inhibition of gp120CM235/sCD4 binding to Cf2Th/synR5 cells (FIG. 4B)
[4] = target: T1, human CCR5 receptor (hCCR5); test: inhibition of gp120/sCD4 complex binding to CCR5-expressing Cf2Th cells by competing peptide

T1 sequence (P51681 whole entry): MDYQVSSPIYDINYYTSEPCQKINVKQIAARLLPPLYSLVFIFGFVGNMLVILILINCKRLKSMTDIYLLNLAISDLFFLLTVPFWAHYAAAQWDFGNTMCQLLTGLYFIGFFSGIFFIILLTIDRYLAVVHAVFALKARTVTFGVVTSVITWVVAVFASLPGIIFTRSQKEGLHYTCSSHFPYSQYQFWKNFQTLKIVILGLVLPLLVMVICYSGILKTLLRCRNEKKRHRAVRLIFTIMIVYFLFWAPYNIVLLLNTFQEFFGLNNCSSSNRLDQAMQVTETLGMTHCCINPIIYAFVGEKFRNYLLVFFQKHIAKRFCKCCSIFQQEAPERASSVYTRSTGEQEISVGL

B1: MIP-1β (ligand)
chain: APMGSDPPTACCFSYTARKLPRNFVVDYYETSSLCSQPAVVFQTKRSKQVCADPSESWVQEYVYDLELN
notes: also called MIP-β
In the case of B1, the IC50 [1] is reported as 1.5 nM, the IC50 [2] is reported as 0.43 nM and the IC50 [3] is reported as 1.8 nM.

B2: INNYT (peptide)
peptide: INNYT
In the case of B2, the EC50 [4] is reported as 0.06 nM.

B3: IDNYT (peptide)
peptide: IDNYT
B3 gave an EC50 [4] of 1 nM.
